Assay results published in publication PMC3205837.

Key:
Assay in all cases: EMSA
GST-N-γtubulin1-333 = GST-N-γtubulin1-333 (human, UniProt P23258 1-333)
GST-γ-tubulin = GST-γ-tubulin (human, UniProt P23258 1-451)
GST-γ-tubulin;His-E2F1 = GST-γ-tubulin;His-E2F1 (human;human, UniProt P23258;Q01094 1-451;1-437, |)
Chain of GST-γ-tubulin;His-E2F1 (P23258 whole entry, chain 1 of 2): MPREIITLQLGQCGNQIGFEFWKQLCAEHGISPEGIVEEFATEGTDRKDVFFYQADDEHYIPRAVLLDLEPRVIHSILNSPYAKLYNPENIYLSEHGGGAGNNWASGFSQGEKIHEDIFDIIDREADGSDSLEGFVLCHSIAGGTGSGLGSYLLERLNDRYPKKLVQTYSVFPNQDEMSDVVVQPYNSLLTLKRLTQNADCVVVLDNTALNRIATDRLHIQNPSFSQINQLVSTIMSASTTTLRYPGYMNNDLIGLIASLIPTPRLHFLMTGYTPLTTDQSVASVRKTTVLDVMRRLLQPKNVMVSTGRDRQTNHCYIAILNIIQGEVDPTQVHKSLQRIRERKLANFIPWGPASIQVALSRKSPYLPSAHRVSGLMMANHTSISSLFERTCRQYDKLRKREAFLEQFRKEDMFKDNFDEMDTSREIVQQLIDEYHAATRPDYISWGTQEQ
Chain of GST-γ-tubulin;His-E2F1 (Q01094 whole entry, chain 2 of 2): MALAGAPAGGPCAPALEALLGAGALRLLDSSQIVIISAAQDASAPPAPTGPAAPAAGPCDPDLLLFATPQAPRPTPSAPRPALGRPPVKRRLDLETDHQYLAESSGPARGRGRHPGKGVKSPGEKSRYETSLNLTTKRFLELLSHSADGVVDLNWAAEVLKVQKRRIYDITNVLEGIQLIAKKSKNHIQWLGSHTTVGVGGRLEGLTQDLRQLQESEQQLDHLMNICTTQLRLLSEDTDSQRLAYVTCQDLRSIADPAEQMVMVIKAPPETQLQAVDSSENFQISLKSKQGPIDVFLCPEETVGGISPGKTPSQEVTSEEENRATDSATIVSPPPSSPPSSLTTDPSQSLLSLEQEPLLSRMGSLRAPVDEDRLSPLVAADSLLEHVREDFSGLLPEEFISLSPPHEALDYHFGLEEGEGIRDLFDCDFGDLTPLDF

Chain of GST-γ-tubulin (P23258 whole entry): as the sequence (P23258 whole entry, chain 1 of 2) above
Chain of GST-N-γtubulin1-333 (P23258 1-333): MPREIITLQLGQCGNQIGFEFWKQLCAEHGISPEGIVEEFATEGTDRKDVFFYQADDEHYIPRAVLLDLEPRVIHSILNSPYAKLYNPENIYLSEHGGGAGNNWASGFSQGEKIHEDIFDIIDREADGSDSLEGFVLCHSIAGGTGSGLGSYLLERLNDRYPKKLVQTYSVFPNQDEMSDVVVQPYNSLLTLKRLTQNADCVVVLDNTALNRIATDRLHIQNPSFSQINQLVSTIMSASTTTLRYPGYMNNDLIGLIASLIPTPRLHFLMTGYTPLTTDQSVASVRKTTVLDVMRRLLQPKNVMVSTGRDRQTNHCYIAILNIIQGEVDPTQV

B1: DHFR promoter E2F site, wild type (dsDNA)
DNA 1: AGCTTCTAGTGCAATTTCGCGCCAAACTTGG
DNA 2: AATTCCAAGTTTGGCGCGAAATTGCACTAGA
GST-N-γtubulin1-333
  binding result: no binding
GST-γ-tubulin
  binding result: binds
GST-γ-tubulin;His-E2F1
  binding result: binds
